Measured values: article PMC12102759

B1: ICA1L peptide 451-466 (Islet cell autoantigen 1-like protein), 16-mer library wild type / NSP16 (ORF1ab Nsp16, residues 6799-7088) (parent)
chain 1: QDMSAWFNLFADLDPL
chain 2: SSQAWQPGVAMPNLYKMQRMLLEKCDLQNYGDSATLPKGIMMNVAKYTQLCQYLNTLTLAVPYNMRVIHFGAGSDKGVAPGTAVLRQWLPTGTLLVDSDLNDFVSDADSTLIGDCATVHTANKWDLIISDMYDPKTKNVTKENDSKEGFFTYICGFIQQKLALGGSVAIKITEHSWNADLYKLMGHFAWWTAFVTNVNASSSEAFLIGCNYLGKPREQIDGYVMHANYIFWRNTNPIQLSSYSLFDMSKFPLKLRGTAVMSLKEGQINDMILSLLSKGRLIIRENNRVVI
B2: MBOAT1 peptide 17-32 (Lysophospholipid acyltransferase 1), 16-mer library wild type / NSP3 ADRP (ORF1ab Nsp3b ADRP, residues 1023-1192) (parent)
chain 1: STYLHPLSELLGIPLD
chain 2: not shown

Variants of: B1
Conditions: with NSP16 (ORF1ab Nsp16, residues 6799-7088); bait immobilised on MaxiSorp plates (10 µg), library pre-cleared on GST, 2 h binding at 4 °C, five washes; one round per day, days 1-4; value from days 2 and 3; keep out of graded; scale: average fractional NGS count over selection days 2 and 3

Screen value of substitutions, site by site:
chain 1 A5: G 6.16e-05; H 2.76e-05; L 1.55e-05; S 3.33e-05
chain 1 A11: D 0; F 1.35e-05; S 2.43e-05; W 0
chain 1 D2: E 0
chain 1 D12: G 3.31e-05; N 1.88e-05; P 3.33e-05; Q 5.82e-05
chain 1 D14: A 3.47e-05; F 1.57e-05; G 1.57e-05; H 0; L 6.11e-05; N 6.07e-05; R 8.06e-05; S 6.51e-05
chain 1 F7: M 7.76e-05; R 0; S 3.52e-05; V 5.76e-05
chain 1 F10: H 0; R 0
chain 1 L9: A 0; I 3.31e-05; T 3.99e-05; W 7.05e-05
chain 1 L16: A 6.04e-05; D 3.18e-05; F 2.69e-05; N 2.43e-05; S 5.17e-05
chain 1 M3: A 1.55e-05
chain 1 N8: D 6.98e-05; Q 5.42e-05; S 2.43e-05
chain 1 P15: A 1.57e-05; E 0; F 0; L 3.43e-05; W 2.45e-05; Y 5.19e-05
chain 1 S4: A 0; D 6.54e-05; M 6.83e-05; V 0
chain 1 W6: P 0; V 0

Variants of: B2
Conditions: with NSP3 ADRP (ORF1ab Nsp3b ADRP, residues 1023-1192); bait immobilised on MaxiSorp plates (10 µg), library pre-cleared on GST, 2 h binding at 4 °C, five washes; one round per day, days 1-4; value from days 2 and 3; keep out of graded; scale: average fractional NGS count over selection days 2 and 3

Screen value: each site, then its substitutions
chain 1 E9: G 0; H 0; I 0; L 0; M 0; N 0; R 0; S 0; T 0; V 0; Y 0
chain 1 G12: A 0.00306; D 0; H 0.000369; I 5.57e-05; M 0.000127; N 5.25e-05; P 5.99e-05; Q 0.000576; S 0.000443; V 0; W 3.64e-05
chain 1 H5: I 0; L 0; M 0; N 0.0049; Q 0; S 5.25e-05
chain 1 I13: A 5.81e-05; D 0; F 0.00253; H 8.18e-05; K 0; L 0.00192; N 3.03e-05; Q 0.00199; R 1.08e-05; T 3.35e-05; V 3.18e-05; W 0.00073; Y 0.00165
chain 1 L4: A 1.65e-05; D 0; E 0; F 0.000245; H 0.000101; M 8.68e-05; N 0; P 7.55e-05; R 0; S 0; V 0.000192; W 0.000705; Y 0.000191
chain 1 L7: A 0; I 0; M 0
chain 1 L10: F 0.00233; G 0; H 3e-05; I 1.63e-05; K 0; M 0.000281; N 1.09e-05; Q 0; R 0; S 4.6e-05; T 0; V 0; Y 0.157
chain 1 L11: A 8.96e-05; G 7.04e-06; H 0; I 0.000109; M 1.65e-05; N 2.27e-05; Q 0; R 4.2e-05; S 3.31e-05; W 0.0297; Y 0.00171
chain 1 L15: A 0; E 0; I 0.000505; M 0.000121; P 0; Q 0; T 9.33e-05; V 0.000529; W 8.57e-05; Y 0.000938
chain 1 P14: D 0.000131; E 7.55e-05; F 0; G 0.000153; I 2.27e-05; M 0.00294; N 3.9e-05; Q 3.28e-05; R 0; S 1.48e-05; T 0.000186; Y 1.08e-05
chain 1 S1: A 0.000215; D 0.000236; E 0.00035; F 0.000157; G 0.00039; H 0.000511; I 0.000426; L 0.000154; M 9.76e-05; N 0.000536; P 0.000375; Q 0.000187
